Patent US20220356266A1

Target: soluble full length KLK2 protein (human kallikrein-2 6-His protein) (human) (UniProt P20151)
Assay: SPR; antibody captured on a chip coated with anti-Fc antibody, soluble hK2 injected, 1:1 Langmuir fit

B1: KL2B30 Fab (KLCB80) (Fab, V domains shown)
VH: QVQLQESGPGLVKPSETLSLTCTVSGGSISSYYWSWIRQPPGKGLEWIGYIYYSGSTNYNPSLKSRVTISVDTSKNQFSLKLSSVTAADTAVYYCAGTTIFGVVTPNFYYGMDVWGQGTTVTVSS
VL: DIQMTQSPSFLSASVGDRVTITCRASQGISSYLAWYQQKPGKAPKFLIYAASTLQSGVPSRFSGSGSGTEFTLTISSLQPEDFATYYCQQLNSYPLTFGGGTKVEIKR
Kd: 0.46 nM
